Where two headings read alike, the source gives them in different places. Where no end group is shown, it is not given here. [ ]: non-standard residue; d: D form. fluorescein = fluorescein label on the N-terminus; pT = C[C@@H](OP(=O)(O)O)[C@H](N)C(=O)O; pS = N[C@@H](COP(=O)(O)O)C(=O)O; FAM = fluorescein
Experiments:
[1] = target: T1, 14-3-3σ, full-length, recombinant (human, UniProt P31947 1-248); test: fluorescence polarisation
T1 sequence (looked up): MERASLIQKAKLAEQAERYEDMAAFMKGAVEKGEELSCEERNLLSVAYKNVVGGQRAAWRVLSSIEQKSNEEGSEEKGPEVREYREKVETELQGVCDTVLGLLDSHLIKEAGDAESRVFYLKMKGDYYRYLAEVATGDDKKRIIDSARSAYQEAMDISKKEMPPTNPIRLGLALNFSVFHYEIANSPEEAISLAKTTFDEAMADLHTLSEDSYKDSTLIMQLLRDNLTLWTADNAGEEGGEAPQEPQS

[2] = target: T1, 14-3-3σ, full-length, recombinant; test: fluorescence polarisation; remark: listed apart in the source
[3] = target: fluorescein-labeled TNFRSF19-ctp (4) (human); test: fluorescence polarisation
[4] = target: fluorescein-labeled Nup160-ctp (3) (human); test: fluorescence polarisation
[5] = target: fluorescein-labeled TNFRSF19-ctp (4) (human); test: fluorescence polarisation; remark: listed apart in the source
[6] = target: fluorescein-labeled Nup160-ctp (3) (human); test: fluorescence polarisation; remark: listed apart in the source
[7] = target: T1, 14-3-3σ, full-length, recombinant; test: fluorescence polarisation; remark: listed apart in the source
[8] = target: T1, 14-3-3σ, full-length, recombinant; test: fluorescence polarisation; remark: listed apart in the source
[9] = target: T1, 14-3-3σ, full-length, recombinant; test: ITC
[10] = target: T1, 14-3-3σ, full-length, recombinant; test: ITC; remark: listed apart in the source

Q: Which Kd [1] does the source give for {FAM}-KYYITGEAEGFPA[pT]N (peptide, UniProt P03372 581-595, looked up) [N-FAM-2 variant with C-terminal residue N] here?
A: Its Kd is 32.4 µM.

Q: And the Kd [2]?
A: The Kd was 59.5 µM.

B1: 14-3-3σ, full-length, recombinant (natural protein)
chain: T1 sequence (looked up)
Q: Which results are given for B1?
A: Kd [3]: 38 µM; Kd [4]: 0.25 µM; Kd [5]: 538 µM; Kd [6]: 5.34 µM

Q: {FAM}-KYYITGEAEGFPA[pT]F (peptide, UniProt P03372 581-595, looked up) [N-FAM-2 variant with C-terminal residue F] was tested. Which Kd [1] did it give?
A: The Kd was 4.03 µM.

Q: What about the Kd [2] of the same binder?
A: Its Kd is 10.5 µM.

Q: With {FAM}-KYYITGEAEGFPA[pT]A (peptide, UniProt P03372 581-595, looked up) [N-FAM-2 variant with C-terminal residue A] as the binder, how does the Kd [1] read?
A: Its Kd is 0.7 µM.

Q: What about the Kd [2] of the same binder?
A: Its Kd is 19.9 µM.

Q: With fluorescein-KRSV[pS]L-OH [GPR15-ctp, fluorescein-labeled hexaphosphopeptide KRSVpSL-COOH] as the binder, how does the Kd [7] read?
A: The Kd was 7.36 µM.

Q: What about the Kd [8] of the same binder?
A: Its Kd is 1.1 µM.

Q: What does the source list for {FAM}-KYYITGEAEGFPA[pT]V (peptide, UniProt P03372 581-595, looked up) [fluorescein-labeled N-FAM-ERα-ctp (N-FAM-2)]?
A: Kd [1]: 0.05 µM; Kd [2]: 3.61 µM

Q: How did the Kd [1] turn out when {FAM}-KYYITGEAEGFPA[pT]G (peptide, UniProt P03372 581-595, looked up) [N-FAM-2 variant with C-terminal residue G] was run?
A: The Kd was 36.5 µM.

Q: And the Kd [2]?
A: Its Kd is 144 µM.

Q: Which results are given for {FAM}-KYYITGEAEGFPA[pT]S (peptide, UniProt P03372 581-595, looked up) [N-FAM-2 variant with C-terminal residue S]?
A: Kd [1]: 3.54 µM; Kd [2]: 79.8 µM

Q: Which Kd [7] does the source give for fluorescein-YSGH[pS]L-OH [GpIBα-ctp, fluorescein-labeled hexaphosphopeptide YSGHpSL-COOH] here?
A: The Kd was 22.5 µM.

Q: And the Kd [8]?
A: The Kd was 1.69 µM.

Q: Which results are given for KYYITGEAEGFPA[pT]V (peptide, UniProt P03372 581-595, looked up) [ERα C-terminal phospholigand (ERα-ctp, 2)]?
A: Kd [9]: 0.75 µM; Kd [10]: 0.02 µM

Q: What does the source list for fluorescein-RKKR[pS]V-OH [Task3-ctp, fluorescein-labeled hexaphosphopeptide RKKRpSV-COOH]?
A: Kd [7]: 3.15 µM; Kd [8]: 0.1 µM

Q: {FAM}-KYYITGEAEGFPA[pT]D (peptide, UniProt P03372 581-595, looked up) [N-FAM-2 variant with C-terminal residue D] was tested. Which Kd [1] did it give?
A: Its Kd is 48.2 µM.

Q: What about the Kd [2] of the same binder?
A: Its Kd is 173 µM.

Q: What does the source list for {FAM}-KYYITGEAEGFPA[pT]L (peptide, UniProt P03372 581-595, looked up) [N-FAM-2 variant with C-terminal residue L]?
A: Kd [1]: 0.17 µM; Kd [2]: 11 µM

Q: Which Kd [1] does the source give for {FAM}-KYYITGEAEGFPA[pT]T (peptide, UniProt P03372 581-595, looked up) [N-FAM-2 variant with C-terminal residue T] here?
A: The Kd was 1.32 µM.

Q: And the Kd [2]?
A: The Kd was 50 µM.

Q: What does the source list for fluorescein-ALRRQ[pT]-OH [p27Kip1-ctp, fluorescein-labeled hexaphosphopeptide ALRRQpT-COOH]?
A: Kd [7]: 82.2 µM; Kd [8]: 39.9 µM

Q: Which results are given for {FAM}-KYYITGEAEGFPA[pT]I (peptide, UniProt P03372 581-595, looked up) [N-FAM-2 variant with C-terminal residue I]?
A: Kd [1]: 0.06 µM; Kd [2]: 3.03 µM

Q: How did the Kd [7] turn out when fluorescein-ARSW[pT]F-OH [IRL9-ctp, fluorescein-labeled hexaphosphopeptide ARSWpTF-COOH] was run?
A: Its Kd is 3.16 µM.

Q: What about the Kd [8] of the same binder?
A: Its Kd is 1.54 µM.

Source: publication PMC7169973 (ACS chemical biology, 2020)
